What is called Kd is the free concentration of one partner at which half of the binding sites on the other are occupied at equilibrium, for simple one-to-one binding.

For experiment [1], the target named is T1, 15N-labeled WT ZZZ3-ZZ used in NMR titrations (human).
T1 chain: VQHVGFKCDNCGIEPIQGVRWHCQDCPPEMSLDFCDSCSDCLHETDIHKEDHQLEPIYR
Kind of experiment: NMR.

Experiment [2] addresses T2, 15N-labeled ZZZ3-ZZ F821A used in NMR titrations (human).
T2 chain: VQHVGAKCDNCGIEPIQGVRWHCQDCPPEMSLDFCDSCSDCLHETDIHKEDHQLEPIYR
In words: NMR.

The target of experiment [3] is T3, H3K4me3 (1-12) peptide (Homo sapiens).
T3 chain: H-ARTK(Me3)QTARKSTG
In words: tryptophan fluorescence.

Where no end group is shown, it is not given here. Me3 = N6,N6,N6-trimethyl (lysine)

Consider ARTK(Ac)QTAR [H3K4ac peptide of the tryptophan fluorescence and NMR titration experiments], for which the Kd in experiment [1] came to 14 µM; in experiment [2], 480 µM.

B1: ZZZ3 ZZ domain (aa 800–903), GST cleaved (domain or fragment)
chain: KLKKQKLQQMQAESGFVQHVGFKCDNCGIEPIQGVRWHCQDCPPEMSLDFCDSCSDCLHETDIHKEDHQLEPIYRSETFLDRDYCVSQGTSYNYLDPNYFPANR
Consider B1, for which, in experiment [3], the Kd was 22 µM.

As for ARTKQTARKSTG [unmodified H3 peptide of the tryptophan fluorescence and NMR titration experiments], the Kd in experiment [1] stood at 42 µM; in experiment [2], 400 µM.

The values are drawn from publication PMC6138639 (2018).
